Binding signal (% positive cells) data for 2 sequences are collected here from paper PMC11984393.

The target of the data set is CD8 (T-cell surface marker) (Mus musculus) (UniProt P01731). As to the kind of experiment: flow cytometry. The conditions noted are these: 30 min, live-cell binding, 30 min incubation, buffer, salt, pH and temperature not given in the material. A general note: In flow cytometry, cells or beads pass a laser one at a time.
Chain of UniProt P01731 (P01731 whole entry): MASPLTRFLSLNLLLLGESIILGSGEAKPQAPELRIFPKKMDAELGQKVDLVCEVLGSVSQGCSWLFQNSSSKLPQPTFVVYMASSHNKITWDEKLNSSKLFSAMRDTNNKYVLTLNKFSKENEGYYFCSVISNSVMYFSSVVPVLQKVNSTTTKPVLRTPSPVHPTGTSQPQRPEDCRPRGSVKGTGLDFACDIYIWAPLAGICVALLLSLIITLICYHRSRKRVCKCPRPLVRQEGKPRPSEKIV

Take “TTTTTAAGTAATGTATTTAAATTGCGAACTACTACTCTCTCTATATATTGCGAACTACTACTCTCTCTATATTAAAGGAAGGATCTCA [Apt-random-FAM]”: under “negative control”, the binding signal (% positive cells) turned out to be 0.74.
For the sequence “TTTTTTTTTTCCAGAGTGACGCAGCAACAGAGGTGTAGAAGTACACGTGAACAAGCTTGAAATTGTCTCCGACAGAGGTGGACACGGTGGCTTTTAGT [Apt-CD8-FAM]”, the binding signal (% positive cells) is 44.4.
